Experimental data as given in patent US20240317858A1 (Adimab, published 2024).
Residue numbers refer to the chain shown, from its start.

B1: Antibody No. A003 (ADI-26913) Fab (Fab, V domains shown)
VH: QVQLVQSGAEVKKPGASVKVSCKASGFNIKDYYMHWVRQAPGQRLEWMGWIDLENANTIYDAKFQGRVTITRDTSASTAYMELSSLRSEDTAVYYCARDQYGRYFYDVWGQGTLVTVSS
VL: DIVMTQSPDSLAVSLGERATINCKSSQSLLNARTGKNYLAWYQQKPGQPPKLLIYWASTRESGVPDRFSGSGSGTDFTLTISSLQAEDVAVYYCKQSYSRRTFGGGTKVEIK
notes: Fab by papain digestion of the IgG1
B2: Antibody No. V009 (ADI-70326) Fab (Fab, V domains shown)
VH: B1 VH with N28D, M48I, D52E, N57D, I59V, Q100A
VL: B1 VL with T5S, E61S, K95V, S99F
notes: as for B1
B3: Antibody No. V002 (ADI-67445) Fab (Fab, V domains shown)
VH: B1 VH with N57E, G66D, Q100A, V108E
VL: B1 VL
notes: as for B1
B4: Antibody No. V017 (ADI-76360) Fab (Fab, V domains shown)
VH: B1 VH with N57D, A97G, Q100A
VL: B1 VL with R100L
notes: as for B1
B5: Antibody No. A004 (ADI-26920) Fab (Fab, V domains shown)
VH: B1 VH with A97G, Q100A
VL: B1 VL with R100L
notes: as for B1
B6: Antibody No. V018 (ADI-76361) Fab (Fab, V domains shown)
VH: B1 VH with N28D, N55E, A56G, Q100A
VL: B1 VL with R100L
notes: as for B1
B7: Antibody No. V016 (ADI-76359) Fab (Fab, V domains shown)
VH: B1 VH with N28D, A97G, Q100A
VL: B1 VL with R100L
notes: as for B1
B8: Antibody No. A005 (ADI-26921) Fab (Fab, V domains shown)
VH: B1 VH with N55E, A56G, Q100A
VL: B1 VL with R100L
notes: as for B1
B9: Antibody No. V010 (ADI-70327) Fab (Fab, V domains shown)
VH: B1 VH with N28D, M48I, D52E, A56D, N57D, I59V, Q100A
VL: B1 VL with T5S, E61S, K95V, S99F
notes: as for B1
B10: Antibody No. V014 (ADI-76357) Fab (Fab, V domains shown)
VH: B1 VH with N28D
VL: B1 VL
notes: as for B1
B11: Antibody No. V015 (ADI-76358) Fab (Fab, V domains shown)
VH: B1 VH with N57D
VL: B1 VL
notes: as for B1
B12: Antibody No. V003 (ADI-67446) Fab (Fab, V domains shown)
VH: B1 VH with N28D, D52E, N57D, Q100A
VL: B1 VL
notes: as for B1
B13: Antibody No. V006 (ADI-67449) Fab (Fab, V domains shown)
VH: B1 VH with I29D, N57E, G66D, Q100A
VL: B1 VL
notes: as for B1
B14: Antibody No. V012 (ADI-70329) Fab (Fab, V domains shown)
VH: B1 VH with I29D, M48I, N57E, I59V, G66D, Q100A
VL: B1 VL with T5S, E61S, K95V, S99F
notes: as for B1
B15: Antibody No. V008 (ADI-70325) Fab (Fab, V domains shown)
VH: B1 VH with M48I, N57E, I59V, G66D, Q100A
VL: B1 VL with T5S, E61S, K95V, S99F
notes: as for B1
B16: Antibody No. V005 (ADI-67448) Fab (Fab, V domains shown)
VH: B1 VH with K30D, A56D, Q100A
VL: B1 VL
notes: Fab by papain digestion of the IgG1; VH as printed is identical to that of V004

Target: T1, Cynomolgus CD3εδ Fc heterodimer (Cy CD3ε Fc + CD3δ Fc-HIS) (cynomolgus, UniProt Q95LI5 22-117; Q95LI8 22-100)
T1 construct: range 22-117;range 22-100; Made in HEK 293 cells with a heterologous signal peptide; also called Cy CD3εδ-Fc; cyno CD3εδ Fc; not shown: Fc; Fc followed by HIS tag
T1 sequence (Q95LI5 22-117, stated change not applied, form in doubt, chain 1 of 2): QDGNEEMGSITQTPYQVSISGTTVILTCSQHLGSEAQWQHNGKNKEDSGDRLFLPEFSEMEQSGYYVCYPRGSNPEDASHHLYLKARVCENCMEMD
T1 sequence (Q95LI8 22-100, stated change not applied, form in doubt, chain 2 of 2): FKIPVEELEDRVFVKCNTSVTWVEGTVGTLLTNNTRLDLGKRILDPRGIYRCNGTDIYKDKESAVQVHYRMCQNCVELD
Experiment: BLI (Octet), Fab monovalent, pH 6.0
Experimental: (§1) ForteBio KD measurements (Biolayer interferometry; BLI). ForteBio affinity measurements were performed generally as previously described (Estep, P., et al., High throughput solution-based measurement of antibody-antigen affinity and epitope binning. MAbs, 2013. 5(2): p. 270-8.). Briefly, ForteBio affinity measurements were performed by loading IgGs or CD3εδ Fe-HIS heterodimer onto AHC sensors. Sensors were equilibrated off-line in assay buffer for 30 min and then monitored on-line for 60 seconds for baseline establishment. Sensors with loaded IgGs were exposed to 100 nM antigen (e.g., CD3) for 3 min, afterwards they were transferred to assay buffer for 10 min for off-rate measurement. Sensors loaded with CD3εδ Fe-HIS heterodimer were exposed to 100 nM anti-CD3 Fab for 3 min, afterwards they were transferred to assay buffer for 3 min or 10 min for off-rate measurement. Kinetics were analyzed using the 1:1 binding model. For measuring binding at different pHs, measurements were performed at pre-determined pHs (e.g., pH 7.4 and pH 6.0).
(§2) Anti-CD3 antibodies A001-A005, V002, V004, V007, V009, V010, V013, and V014-V019 were produced as IgG1s in CHO cells, and Fab fragments were generated from IgG1 antibodies by papain digestion and purification as described in Example 2. Human, cynomolgus, rhesus, and mouse CD3εδ Fc heterodimers were produced, and monovalent binding affinity and avidity at pH 7.4 and pH 6.0 were measured using the Octet® HTX instrument (ForteBio) as described in Example 2.

Row | Kd | Binder
1 | 32 nM | B1
2 | 1.6 nM | B2
3 | 8 nM | B3
4 | 34 nM | B4
5 | 23 nM | B5
6 | 17 nM | B6
7 | 49 nM | B7
8 | 45 nM | B8
9 | 1.9 nM | B9
10 | 21 nM | B10
11 | 29 nM | B11

Target: T2, Human CD3εδ Fc heterodimer (Hu CD3ε Fc + CD3δ Fc-HIS) (human, UniProt P07766 22-126; P04234 22-100)
T2 construct: range 22-126;range 22-100; Made in HEK 293 cells with a heterologous signal peptide; also called Hu CD3εδ-Fc; CD3εδ Fc-HIS heterodimer; not shown: Fc; Fc followed by HIS tag
T2 sequence (P07766 22-126, stated change not applied, form in doubt, chain 1 of 2): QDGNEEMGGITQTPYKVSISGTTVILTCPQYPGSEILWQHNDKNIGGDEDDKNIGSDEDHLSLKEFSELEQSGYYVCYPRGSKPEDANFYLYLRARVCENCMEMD
T2 sequence (P04234 22-100, stated change not applied, form in doubt, chain 2 of 2): as the sequence (Q95LI8 22-100, stated change not applied, form in doubt, chain 2 of 2) above, with V5I, K15N, V20I, T32S, N33D, N34I, A64T, N74S counted along it
Experiment: BLI (Octet), Fab monovalent, pH 6.0
Experimental: as §1, §2

Row | Kd | Binder
12 | 29 nM | B1
13 | 1.2 nM | B2
14 | 8.8 nM | B3
15 | 58 nM | B4
16 | 29 nM | B5
17 | 33 nM | B6
18 | 37 nM | B7
19 | 35 nM | B8
20 | 2 nM | B9
21 | 24 nM | B10
22 | 34 nM | B11

Target: T1, Cynomolgus CD3εδ Fc heterodimer (Cy …)
Experiment: BLI (Octet), Fab monovalent, pH 7.4
Experimental: as §1, §2

Row | Kd | Binder
23 | 28 nM | B1
24 | 1.9 nM | B2
25 | 12 nM | B3
26 | 96 nM | B4
27 | 50 nM | B5
28 | 28 nM | B6
29 | 75 nM | B7
30 | 39 nM | B8
31 | 3.4 nM | B9
32 | 39 nM | B10
33 | 58 nM | B11

Target: T3, Rhesus CD3εδ Fc heterodimer (rhesus)
T3 construct: extracellular domain; also called Rh CD3εδ-Fc
Experiment: BLI (Octet), Fab monovalent, pH 7.4
Experimental: as §1, §2

Row | Kd | Binder
34 | 33 nM | B1
35 | 1.8 nM | B2
36 | 15 nM | B3
37 | 51 nM | B5
38 | 29 nM | B6
39 | 87 nM | B7
40 | 36 nM | B8
41 | 4.4 nM | B9
42 | 39 nM | B10
43 | 53 nM | B11

Target: T2, Human CD3εδ Fc heterodimer (Hu CD3ε Fc …)
Experiment: BLI (Octet), Fab monovalent, pH 7.4
Experimental: as §1, §2

Row | Kd | Binder
44 | 35 nM | B1
45 | 1.6 nM | B2
46 | 13 nM | B3
47 | 420 nM | B4
48 | 42 nM | B5
49 | 37 nM | B6
50 | 77 nM | B7
51 | 78 nM | B8
52 | 4.1 nM | B9
53 | 44 nM | B10
54 | 56 nM | B11

Target: T1, Cynomolgus CD3εδ Fc heterodimer (Cy …)
Experiment: SPR (Biacore), Fab over immobilized CD3εδ Fc, pH 6.0
Experimental: (§3) Anti-CD3 antibodies A001-A005, V002, V004, V007, V009, V010, V013, and V014-V019 were produced in CHO cells, and Fab fragments were generated from IgG1 antibodies by papain digestion and purification as described in Example 2. Monovalent binding affinity at pH 7.4 and pH 6.0 was measured via surface plasmon resonance (SPR). Briefly, human or cynomolgus CD3εδ Fe heterodimer produced as described in Example 2 was immobilized to a CM5 sensor chip in a Biacore® X100 (Cytiva, previously GE Healthcare Life Sciences) to a response level of ˜500 RUs. Fabs were then injected at 3-fold increasing concentrations, ranging from 0.74-180 nM. The sensor chip was doubly regenerated between cycles using 0.35 M EDTA and 0.1 M NaOH. The resulting data were double reference subtracted and fit to a 1:1 binding model using Biacore® Evaluation Software.

Row | Kd | Binder
55 | 11 nM | B1
56 | 0.24 nM | B2
57 | 3.3 nM | B3
58 | 26 nM | B4
59 | 15 nM | B5
60 | 29 nM | B6
61 | 23 nM | B7
62 | 24 nM | B8
63 | 0.82 nM | B9
64 | 12 nM | B10
65 | 11 nM | B11

Target: T2, Human CD3εδ Fc heterodimer (Hu CD3ε Fc …)
Experiment: as above
Experimental: as §3

Row | Kd | Binder
66 | 11 nM | B1
67 | 1.1 nM | B2
68 | 4.2 nM | B3
69 | 25 nM | B4
70 | 16 nM | B5
71 | 31 nM | B6
72 | 22 nM | B7
73 | 20 nM | B8
74 | 3.1 nM | B9
75 | 12 nM | B10
76 | 14 nM | B11

Target: T1, Cynomolgus CD3εδ Fc heterodimer (Cy …)
Experiment: SPR (Biacore), Fab over immobilized CD3εδ Fc, pH 7.4
Experimental: as §3

Row | Kd | Binder
77 | 9.3 nM | B1
78 | 0.15 nM | B2
79 | 16 nM | B4
80 | 9 nM | B5
81 | 36 nM | B6
82 | 16 nM | B7
83 | 33 nM | B8
84 | 0.45 nM | B9
85 | 11 nM | B10
86 | 19 nM | B11

Target: T2, Human CD3εδ Fc heterodimer (Hu CD3ε Fc …)
Experiment: as above
Experimental: as §3

Row | Kd | Binder
87 | 9.9 nM | B1
88 | 0.14 nM | B2
89 | 19 nM | B4
90 | 10 nM | B5
91 | 42 nM | B6
92 | 14 nM | B7
93 | 24 nM | B8
94 | 0.39 nM | B9
95 | 11 nM | B10
96 | 18 nM | B11

Target: T1, Cynomolgus CD3εδ Fc heterodimer (Cy …)
Experiment: BLI (Octet), CD3εδ Fc on AHC sensor, 100 nM Fab
Experimental: (§4) Affinity of the anti-CD3 antibodies for CD3 was determined by measuring their kinetic constants (kₒₙ, koff, KD) on ForteBio Octet®. ForteBio affinity measurements were performed generally as previously described (Estep et al., MAbs. 2013 5(2):270-8). […] Sensors were equilibrated off-line in assay buffer for 30 minutes and then monitored on-line for 60 seconds for baseline establishment. For monovalent binding measurement, sensors with loaded CD3εδ Fc were exposed to 100 nM anti-CD3 Fab, as further described in Example 2 below] for 3 minutes, afterwards they were transferred to assay buffer for 3 minutes for off-rate measurement. Kinetics data were fit using a 1:1 binding model in the data analysis software provided by ForteBio.

Row | Kd | Binder
97 | 4.18 nM | B12
98 | 8.15 nM | B13
99 | 1.64 nM | B14
100 | 0.91 nM | B15
101 | 6.06 nM | B16
102 | 0.81 nM | B2
103 | 7.33 nM | B3
104 | 1.91 nM | B9

Target: T2, Human CD3εδ Fc heterodimer (Hu CD3ε Fc …)
Experiment: BLI (Octet), CD3εδ Fc on AHC sensor, 100 nM Fab
Experimental: as §4

Row | Kd | Binder
105 | 4.57 nM | B12
106 | 7.97 nM | B13
107 | 1.65 nM | B14
108 | 0.95 nM | B15
109 | 6.98 nM | B16
110 | 0.81 nM | B2
111 | 7.84 nM | B3
112 | 1.92 nM | B9
